Experimental data as given in patent US20080181899A1 (Regeneron, published 2008).

B1: 318518-01A10-D8 (antibody, human IgG1)
heavy: not shown
VL: EIVMTQSPATLSLSPGERATLSCRASQSVSSYLAWYQQKPGQAPRLLIYDASNRATGIPARFSGSGSGTDFTLTISSLEPEDFAVYYCQHRSNWPPTFGGGTKVEIK
notes: HCVR 429 with hIgG1 constant region 950; also called REGN281; 318518-1A10-D8
B2: REGN421 (antibody, human IgG1)
heavy: not shown
VL: EIVLTQSPATLSLSPGERATLSCRASQSVSSYLAWYQQKPGQAPRLLIYDASNRATGIPARFSGSGSGTDFTLTISSLEPEDFAVYYCQHRSNWPPTFGGGTKVEIK
notes: HCVR 901 with hIgG1 constant region 950
B3: REGN422 (antibody, human IgG4 S228P)
heavy: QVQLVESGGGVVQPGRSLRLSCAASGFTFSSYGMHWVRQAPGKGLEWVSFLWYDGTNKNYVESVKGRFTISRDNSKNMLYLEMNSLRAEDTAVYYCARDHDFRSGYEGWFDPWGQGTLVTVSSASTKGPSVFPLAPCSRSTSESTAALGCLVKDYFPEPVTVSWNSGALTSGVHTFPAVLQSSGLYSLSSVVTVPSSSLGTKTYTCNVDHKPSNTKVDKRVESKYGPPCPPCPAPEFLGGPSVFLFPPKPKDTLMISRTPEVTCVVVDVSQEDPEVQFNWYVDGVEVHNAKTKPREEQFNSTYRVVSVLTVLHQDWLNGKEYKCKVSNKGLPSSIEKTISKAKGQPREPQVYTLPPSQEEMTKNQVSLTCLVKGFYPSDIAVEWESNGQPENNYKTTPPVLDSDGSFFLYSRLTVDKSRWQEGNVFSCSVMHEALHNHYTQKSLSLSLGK
VL: EIVLTQSPATLSLSPGERATLSCRASQSVSSYLAWYQQKPGQAPRLLIYDASNRATGIPARFSGSGSGTDFTLTISSLEPEDFAVYYCQHRSNWPPTFGGGTKVEIK
notes: HCVR 901 with modified hIgG4 constant region 952

Experiments:
dimeric hDII4-hFc [1] = biological target: T1, dimeric hDII4-hFc (human, UniProt Q9NR61 27-524, biotin in Example 3 (biotin-DII4-hFc), site not stated); experiment: competition ELISA; antibody titrated against 30 pM biotin-DII4-hFc (1 hr); free biotin-DII4-hFc on Notch-hFc plate
T1 construct: also called DII4-Fc; biotin-DII4-hFc; not shown: human Fc
Protocol: (§1) The ability of the antibodies to block DII4 binding to Notch was evaluated with an ELISA-based immunoassay. Briefly, Notch-hFc recombinant protein was coated on a 96-well plate in PBS buffer overnight at 4° C. at […], and the nonspecific binding sites were blocked with BSA.

hDII4-mFc = biological target: T2, hDII4-mFc (human, UniProt Q9NR61 27-524); experiment: SPR BIACORE; antibody captured by anti-hFc; dimer analyte
T2 construct: also called dimeric DII4-mFc; not shown: mouse Fc

mmDII4-mFc = biological target: T3, mmDII4-mFc (M. mulatta, UniProt Q9NR61 27-524 (human entry)); experiment: as above
T3 construct: also called mmDII4 dimer; not shown: mouse Fc
T3 chain: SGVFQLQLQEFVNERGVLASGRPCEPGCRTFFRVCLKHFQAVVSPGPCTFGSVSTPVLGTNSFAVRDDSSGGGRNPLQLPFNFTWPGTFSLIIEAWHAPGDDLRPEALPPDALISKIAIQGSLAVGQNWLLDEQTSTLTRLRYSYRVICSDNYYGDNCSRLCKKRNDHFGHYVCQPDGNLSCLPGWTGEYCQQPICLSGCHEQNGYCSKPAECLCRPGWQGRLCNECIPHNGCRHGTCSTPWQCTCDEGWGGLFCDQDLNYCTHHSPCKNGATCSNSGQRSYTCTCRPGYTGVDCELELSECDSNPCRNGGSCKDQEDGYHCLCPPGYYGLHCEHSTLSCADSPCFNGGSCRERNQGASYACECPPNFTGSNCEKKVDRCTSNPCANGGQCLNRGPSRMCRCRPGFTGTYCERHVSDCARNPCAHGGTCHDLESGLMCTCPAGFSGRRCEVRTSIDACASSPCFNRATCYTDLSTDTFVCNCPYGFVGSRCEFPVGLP

[2] = biological target: T4, monomeric hDII4 (human delta-like ligand 4) (human, UniProt Q9NR61 27-524); experiment: SPR BIACORE; antibody captured by anti-hFc; monomeric DII4 analyte
T4 construct: also called monomeric DII4 protein
Protocol: Equilibrium dissociation constants (KD values) for antigen binding to the selected antibodies described above were determined by surface kinetics on a real-time biosensor surface plasmon resonance assay (BIACORE™ 2000). The antibody was captured on a goat anti-mouse IgG polyclonal antibody surface created through direct chemical coupling to a BIACORE™ chip to form a captured antibody surface. […] Kinetic analysis was performed to calculate KD, dissociation rate constants, and half-life of antigen/antibody complex dissociation (Table 1). […] Antibodies were presented by goat anti-hFc polyclonal antibody reagent (Jackson Immuno Research Lab) immobilized on BIACORE™ chip, and exposed to either dimeric DII4-mFc or monomeric DII4 protein (Table 2).

dimeric hDII4-hFc [3] = biological target: T1, dimeric hDII4-hFc; experiment: competition ELISA; antibody titrated against 25 pM biotin-DII4-hFc; free biotin-DII4-hFc on Notch-hFc plate
Protocol: as §1

[4] = biological target: T5, hDII3-hFc (human delta-like ligand 3 fused to human Fc) (human, UniProt Q9NYJ7 27-490); experiment: OCTET; antibody captured by biotin-anti-hK on streptavidin biosensor
T5 construct: not shown: human Fc
T5 sequence: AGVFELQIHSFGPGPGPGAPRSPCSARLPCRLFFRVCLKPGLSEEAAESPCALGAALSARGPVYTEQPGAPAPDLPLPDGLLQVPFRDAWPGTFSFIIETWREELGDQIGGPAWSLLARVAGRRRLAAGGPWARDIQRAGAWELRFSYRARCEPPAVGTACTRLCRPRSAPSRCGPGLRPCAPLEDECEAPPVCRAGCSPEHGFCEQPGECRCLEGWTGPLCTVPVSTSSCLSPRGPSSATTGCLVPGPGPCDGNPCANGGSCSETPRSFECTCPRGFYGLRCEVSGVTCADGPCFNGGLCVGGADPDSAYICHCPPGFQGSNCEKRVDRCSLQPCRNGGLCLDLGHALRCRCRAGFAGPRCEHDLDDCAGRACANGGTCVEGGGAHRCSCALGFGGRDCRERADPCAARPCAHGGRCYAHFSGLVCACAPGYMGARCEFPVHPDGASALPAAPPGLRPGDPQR
Protocol: Briefly, strepavidin high binding FA biosensors (ForteBio, Inc., Menlo Park, Calif.) were first incubated with biotin-anti-hK at 5 μg/ml for 10 min at 30° C., to achieve saturation. […] Changes in the thickness of the biological layer after each incubation were measured.

[5] = biological target: T6, hDII1-hFc (human delta-like ligand 1 fused to human Fc) (human, UniProt O00548 18-544); experiment: SPR BIACORE; antibody captured by anti-human kappa; hDII1-hFc analyte
T6 construct: not shown: human Fc
T6 sequence: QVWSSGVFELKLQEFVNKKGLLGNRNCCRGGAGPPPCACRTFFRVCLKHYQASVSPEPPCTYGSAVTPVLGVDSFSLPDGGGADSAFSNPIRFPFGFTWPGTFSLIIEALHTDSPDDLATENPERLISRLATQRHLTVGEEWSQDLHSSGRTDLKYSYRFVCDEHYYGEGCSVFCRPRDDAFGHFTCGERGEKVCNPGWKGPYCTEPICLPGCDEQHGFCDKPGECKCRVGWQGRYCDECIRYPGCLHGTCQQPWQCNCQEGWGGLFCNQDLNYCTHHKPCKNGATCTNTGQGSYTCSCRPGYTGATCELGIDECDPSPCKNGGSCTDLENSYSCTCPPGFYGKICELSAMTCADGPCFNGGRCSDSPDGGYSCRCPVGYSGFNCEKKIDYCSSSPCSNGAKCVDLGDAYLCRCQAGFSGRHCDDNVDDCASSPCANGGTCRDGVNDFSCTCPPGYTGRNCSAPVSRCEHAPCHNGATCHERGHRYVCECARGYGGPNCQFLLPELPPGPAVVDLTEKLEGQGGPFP
Protocol: Cross-reactivity of the antibodies to human delta-like ligand1 (SEQ ID NO:953) and human delta-like ligand 3 (SEQ ID NO:954) proteins was determined.

[6] = biological target: T5, hDII3-hFc (human delta-like ligand 3 …); experiment: SPR BIACORE; ligand amine-coupled to CM-5 chip; antibody injected
Excerpt: An alternative BIACORE™ format was used to assess cross-reactivity between anti-hDII4 antibody and either hDII1-hFc or hDII3-hFc.

Row | Binder | IC50 (dimeric hDII4-hFc [1]) [nM] | Kd (hDII4-mFc) [nM] | koff (hDII4-mFc) [s⁻¹] | kon (hDII4-mFc) [M⁻¹ s⁻¹] | Kd (mmDII4-mFc) [nM] | koff (mmDII4-mFc) [s⁻¹] | kon (mmDII4-mFc) [M⁻¹ s⁻¹] | Kd [2] [nM] | IC50 (dimeric hDII4-hFc [3]) [nM] | binding result [4] | binding result [5] | binding result [6]
1 | B1 | 0.042 | 0.0163 | 4.96e-06 | 302000 | 0.0147 | 4.64e-06 | 316000 | 0.399 | 0.05 | no binding (tested: 200 nM) | no binding (tested: 100 µg/ml) | 
2 | B2 | 0.045 | 0.0137 | 4.7e-06 | 343000 | 0.013 | 3.8e-06 | 335000 |  |  |  | no binding (tested: 100 µg/ml) | no binding (tested: 300 µg/ml)
3 | B3 | 0.039 | 0.0133 | 4.6e-06 | 346000 | 0.0098 | 4.15e-06 | 423000 |  |  |  | no binding (tested: 100 µg/ml) | no binding (tested: 300 µg/ml)
